Experimental data reported in US20240301067A1 (WUXI BIOLOGICS IRELAND, published 2024).
Changes are numbered by the printed parent chain. Names and notes keep the numbering of the source. Values belong to the binder of their own block, whether it stands above or below them.

Columns and labels:
[1] = target: T1, Cynomolgus monkey PD-1 on transiently transfected 293F cells (cynomolgus monkey); assay: FACS on cyno PD-1 transfected 293F cells, experiment 1
T1 construct: whole, on cells; also called cell surface cynomolgus PD-1; cyno PD-1
Description: Cynomolgus monkey PD-1 (GenBank Accession No. NP_001271065.1) transient transfected 293F cells (2×10⁵ cells/well) were incubated with various concentrations of anti-PD-1 antibodies (3-fold serially diluted from 133.4 nM to 0.008 nM) at 4° C. for 1 hour. After washing with 1×PBS/1% BSA, the secondary antibody PE-labeled goat anti-human IgG was applied and incubated with cells at 4° C. for 1 hour. Anti-human PD-1 antibodies BMK1 and BMK3 were used as positive control. Human IgG4 isotype antibody was used as negative control. The cells were then washed and re-suspended in 1×PBS/1% BSA. MFI of the cells was measured by a flow cytometer and analyzed by FlowJo (version 7.6.1).

[2] = target: T2, Human PD-1 extracellular domain, mFc tag (human, UniProt Q15116 25-170); assay: ELISA competition on coated hPro1.ECD.mFc; competitor hPro1L2.ECD.His; experiment 1
T2 construct: extracellular domain; also called hPro1.ECD.mFc; hPD-1.ECD.mFc; not shown: mouse Fc tag at C-terminus
T2 sequence (Q15116 25-170): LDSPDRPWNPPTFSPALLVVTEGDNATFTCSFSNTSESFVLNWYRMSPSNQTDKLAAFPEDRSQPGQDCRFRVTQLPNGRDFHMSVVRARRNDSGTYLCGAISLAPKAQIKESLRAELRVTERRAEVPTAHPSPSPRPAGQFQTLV
Description: Plates were pre-coated with 1 μg/mL, 100 μL per well of human PD-1 ECD (hPro1.ECD.mFc) at 4° C. overnight. After 1-hour blocking using 200 μL of 1×PBS/2% BSA, constant concentration of his tagged human PD-L2 ECD (hPro1L2.ECD.His) and various concentrations of testing antibodies (3-fold serially diluted from 66.7 nM to 0.003 nM) were pre-mixed and added to the plates. After 2-hour incubation at ambient temperature, the binding of the ligand to the immobilized protein was detected by HRP-labeled goat anti-His antibody. The color was developed by dispensing 100 μL of TMB substrate, and then stopped by 100 μL of 2N HCl. The absorbance was read at 450 nm and 540 nm using a microplate spectrophotometer.

[3] = target: T3, Cynomolgus PD-1 extracellular domain, hFc tag (cynomolgus, UniProt B0LAJ3 25-170); assay: ELISA competition on coated cynoPro1.ECD.hFc; competitor cynoProL1.ECD.hFc.biotin 2.5 µg/mL; experiment 1
T3 construct: Bought; also called cynoPro1.ECD.hFc; cyno PD-1 ECD protein
T3 sequence (B0LAJ3 entry or part of it limits assumed): as the sequence (Q15116 25-170) above, with D2E, P10A, V19L, T35A, Q75R, T144A counted along it
Description: (§1) Plates were pre-coated with 1 μg/mL, 100 μL per well of cyno PD-1 ECD protein (cynoPro1.ECD.hFc) at 4° C. overnight. After 1-hour blocking using 200 μL of 1×PBS/2% BSA, constant concentration of biotinylated cyno PD-L1 (cynoProL1.ECD.hFc.biotin) (2.5 μg/mL) and various concentrations of testing antibody, positive and negative control (3-fold serially diluted from 133.4 nM to 0.007 nM) were pre-mixed and added to the plates. The plates were incubated at ambient temperature for 1 hour. The binding of ligand to the immobilized protein was detected by streptavidin-HRP. The color was developed by dispensing 100 μL of TMB substrate, and then stopped by 100 μL of 2M HCl. The absorbance was read at 450 nm and 540 nm using a microplate spectrophotometer.

[4] = target: T4, Human PD-1 on CHO-S cells (human, UniProt Q15116 25-288); assay: FACS competition with biotinylated BMK3 (1 ug/mL) on CHO-S.hPro1.C6 cells, SA-PE
T4 construct: whole, on cells; also called CHO-S.hPro1.C6; WBP305.CHO-S.hPro1.C6
T4 sequence (Q15116 25-288): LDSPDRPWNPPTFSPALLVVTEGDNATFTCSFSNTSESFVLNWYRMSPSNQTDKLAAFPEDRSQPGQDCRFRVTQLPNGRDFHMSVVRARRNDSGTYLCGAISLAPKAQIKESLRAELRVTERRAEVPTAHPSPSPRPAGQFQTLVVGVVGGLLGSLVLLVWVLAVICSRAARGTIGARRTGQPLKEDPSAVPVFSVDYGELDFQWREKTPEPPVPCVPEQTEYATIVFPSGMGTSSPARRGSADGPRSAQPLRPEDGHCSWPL
Description: The human PD-1 transfected cells CHO-S.hPro1.C6 were transferred into 96-well U-bottom plates at a density of 1˜2×10⁵ cells/well. Serial dilutions of testing antibodies (4-fold serially diluted from 133.3 nM to 0.008 nM) were mixed with constant concentration of biotinylated BMK1 (1 μg/mL) or biotinylated BMK3 (1 μg/mL), respectively. Then the mixture was added to the cells in 96-well plates and incubated at 4° C. for 1 hour. After washing with 1×PBS/1% BSA, the secondary antibody SA-PE was applied and incubated with cells at 4° C. for 1 hour. The cells were then washed and resuspended in 1×PBS/1% BSA. MFI of the cells was measured by a flow cytometer and analyzed by FlowJo. Data were shown FIG. 9.

[5] = target: T3, Cynomolgus PD-1 extracellular domain, …; assay: ELISA competition on coated cynoPro1.ECD.hFc; competitor cynoProL1.ECD.hFc.biotin 2.5 µg/mL; experiment 2
Description: as §1

- EC50 [1]: 0.98 nM
- IC50 [2]: 2.02 nM
- IC50 [3]: 1.3 nM
B1: W3056-AP17R1-2H2-FC(IgG4.SP) (Fc fusion)
chain: QVQLVESGGGLVQPGGSLRLSCAASDSIDSLVNMGWYRQAPGKQRELVALIANYITHYADFVKGRFTISRDAAKNTVNLQMSSLKPEDTAVYYCYARNIIVDYWGQGTQVTVSS
notes: VHH fused to Fc of human IgG4 S228P; also called W3056 lead parental antibody (VHH-Fc(hIgG4) fusion); not shown: Fc of human IgG4 (hIgG4.S228P)

- IC50 (read off the curve) [4]: ~20 nM
- IC50 [5]: 0.853 nM
B2: W3056-AP17R1-2H2-Z1-R1-14A1-FC(IgG4.SP) (Fc fusion)
chain: B1 chain with L11V, N53T, A72N, A73S, V77L, N78Y, S82N, K85R, P86A, Q109L
notes: also called W3056 lead antibody (VHH-Fc(hIgG4) fusion); not shown: Fc of human IgG4 (hIgG4.S228P)
